Measured values published in article PMC3932411.

Legend:
[1] = cell surface biotinylation, Western blot; conditions: glycan lost; control: wild type
[2] = I-V relationship, plateau phase; conditions: glycan lost; control: wild type
[3] = I-V relationship; conditions: glycan lost; control: untreated WT (DMSO)
[4] = whole-cell patch clamp, +100 mV; conditions: glycan lost; control: untreated WT (DMSO)

Substance | localisation_or_trafficking [1] | other: channel voltage dependence [2] | other: channel voltage dependence [3] | other: channel deactivation kinetics, other: deactivation slope [4]
TRPM4 (TRPM4b): N992Q | no change | no change |  | 
TRPM4 (TRPM4b): tunicamycin (10 μg/ml; 19 h) |  |  | no change | no change, 5265 ± 572 vs 4855 ± 379
